Reference: US20080213836

Tests used:
[1] = target: recombinant fusion protein of Medaka gelatinase A
[2] = target: T1, Boc-Glu(OBzl)-Ala-Arg-MCA
T1 chain: EAR

[3] = target: T2, human fibrinogen, P02671
T2 chain 1: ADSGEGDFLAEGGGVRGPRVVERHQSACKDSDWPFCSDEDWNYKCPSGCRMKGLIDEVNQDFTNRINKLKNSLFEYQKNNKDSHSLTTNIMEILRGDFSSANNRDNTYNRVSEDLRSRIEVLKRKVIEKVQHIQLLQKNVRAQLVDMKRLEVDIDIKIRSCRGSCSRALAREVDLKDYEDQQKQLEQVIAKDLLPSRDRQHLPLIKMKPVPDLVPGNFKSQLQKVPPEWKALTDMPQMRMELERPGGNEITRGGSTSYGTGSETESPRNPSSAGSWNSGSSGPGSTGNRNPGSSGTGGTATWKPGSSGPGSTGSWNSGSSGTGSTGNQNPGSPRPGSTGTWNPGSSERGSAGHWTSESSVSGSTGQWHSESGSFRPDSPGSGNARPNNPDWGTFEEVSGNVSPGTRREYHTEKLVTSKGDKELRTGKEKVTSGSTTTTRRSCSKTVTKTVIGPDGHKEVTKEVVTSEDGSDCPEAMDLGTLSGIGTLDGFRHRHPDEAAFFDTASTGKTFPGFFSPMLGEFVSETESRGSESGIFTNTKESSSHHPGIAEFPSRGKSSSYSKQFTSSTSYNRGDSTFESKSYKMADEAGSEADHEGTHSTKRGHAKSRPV
T2 chain 2: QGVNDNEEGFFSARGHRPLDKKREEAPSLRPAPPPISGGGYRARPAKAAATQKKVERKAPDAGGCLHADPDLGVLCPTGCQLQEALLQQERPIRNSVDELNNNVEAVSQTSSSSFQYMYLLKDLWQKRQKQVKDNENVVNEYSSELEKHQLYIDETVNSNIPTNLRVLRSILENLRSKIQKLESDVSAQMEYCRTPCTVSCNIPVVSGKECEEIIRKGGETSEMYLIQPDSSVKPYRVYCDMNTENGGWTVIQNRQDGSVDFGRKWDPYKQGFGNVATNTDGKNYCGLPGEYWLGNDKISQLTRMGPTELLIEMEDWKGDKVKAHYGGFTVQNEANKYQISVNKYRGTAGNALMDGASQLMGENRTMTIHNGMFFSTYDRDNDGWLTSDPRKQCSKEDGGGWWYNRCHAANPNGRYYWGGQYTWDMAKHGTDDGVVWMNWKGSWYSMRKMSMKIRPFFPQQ
T2 chain 3: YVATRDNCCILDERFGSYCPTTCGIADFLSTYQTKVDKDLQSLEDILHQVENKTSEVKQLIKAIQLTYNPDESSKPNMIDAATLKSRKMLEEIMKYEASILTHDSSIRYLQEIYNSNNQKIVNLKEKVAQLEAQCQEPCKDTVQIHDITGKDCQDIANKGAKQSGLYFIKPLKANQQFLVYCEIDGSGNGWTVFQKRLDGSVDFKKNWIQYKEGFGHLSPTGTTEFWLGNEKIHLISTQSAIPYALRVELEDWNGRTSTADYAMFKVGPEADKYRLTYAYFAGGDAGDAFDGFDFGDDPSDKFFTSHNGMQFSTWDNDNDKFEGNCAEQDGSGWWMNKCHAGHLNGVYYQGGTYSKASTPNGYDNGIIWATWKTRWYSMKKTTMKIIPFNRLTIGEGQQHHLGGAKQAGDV

[4] = target: T3, Z-Phe-Arg-MCA
T3 chain: FR

[5] = target: mouse laminin
[6] = target: T4, Gly-Asp-Asp-Asp-Asp-Lys-β-naphthylamide
T4 chain: GDDDDK

[7] = target: human single-chain tPA fusion protein with N-terminal His-tag/EP-cleavage site, P00750
[8] = target: T5, Pro-Phe-Arg-MCA
T5 chain: PFR

[9] = target: gelatin
[10] = target: Human plasma fibronectin, P02751
[11] = target: D4K-cleavage site-containing control protein (Novagen)
[12] = target: T6, human high-molecular-weight (HMW) kininogen, P01042
T6 chain: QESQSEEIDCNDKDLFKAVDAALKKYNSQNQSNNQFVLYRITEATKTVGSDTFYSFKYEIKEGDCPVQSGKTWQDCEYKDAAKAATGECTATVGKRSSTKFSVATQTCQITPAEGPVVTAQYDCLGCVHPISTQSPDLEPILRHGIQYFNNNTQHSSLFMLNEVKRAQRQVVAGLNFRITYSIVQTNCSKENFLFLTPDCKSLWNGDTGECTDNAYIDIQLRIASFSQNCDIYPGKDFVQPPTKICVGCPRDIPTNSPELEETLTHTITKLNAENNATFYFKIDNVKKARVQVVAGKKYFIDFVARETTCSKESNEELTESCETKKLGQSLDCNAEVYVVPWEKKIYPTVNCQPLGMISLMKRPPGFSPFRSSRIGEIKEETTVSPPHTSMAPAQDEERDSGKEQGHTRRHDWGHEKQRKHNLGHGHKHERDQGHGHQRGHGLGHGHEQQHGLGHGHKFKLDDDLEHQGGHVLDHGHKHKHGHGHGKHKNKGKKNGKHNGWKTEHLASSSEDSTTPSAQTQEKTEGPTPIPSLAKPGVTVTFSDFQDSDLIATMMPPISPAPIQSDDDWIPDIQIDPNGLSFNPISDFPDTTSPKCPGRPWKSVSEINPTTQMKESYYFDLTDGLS

Chain of human single-chain tPA fusion protein with N-terminal His-tag/EP-cleavage site, P00750 (P00750 whole entry, looked up, the tested form may be a part): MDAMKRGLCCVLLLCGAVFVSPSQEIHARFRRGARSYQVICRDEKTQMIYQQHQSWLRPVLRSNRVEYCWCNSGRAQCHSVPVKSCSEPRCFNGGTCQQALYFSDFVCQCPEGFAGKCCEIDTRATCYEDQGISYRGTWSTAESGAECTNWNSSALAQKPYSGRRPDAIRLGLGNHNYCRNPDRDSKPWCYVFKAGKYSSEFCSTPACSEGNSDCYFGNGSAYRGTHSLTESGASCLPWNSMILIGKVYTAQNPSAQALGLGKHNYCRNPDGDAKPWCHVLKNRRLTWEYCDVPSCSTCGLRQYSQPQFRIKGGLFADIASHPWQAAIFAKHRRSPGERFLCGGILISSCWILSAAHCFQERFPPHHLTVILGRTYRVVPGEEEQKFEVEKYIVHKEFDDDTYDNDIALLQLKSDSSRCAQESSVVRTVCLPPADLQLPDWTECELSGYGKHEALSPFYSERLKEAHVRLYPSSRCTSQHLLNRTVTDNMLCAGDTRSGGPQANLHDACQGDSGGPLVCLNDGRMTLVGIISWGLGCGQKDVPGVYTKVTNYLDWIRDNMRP
Chain of Human plasma fibronectin, P02751 (P02751 other isoform, or with tags, fused parts or gaps): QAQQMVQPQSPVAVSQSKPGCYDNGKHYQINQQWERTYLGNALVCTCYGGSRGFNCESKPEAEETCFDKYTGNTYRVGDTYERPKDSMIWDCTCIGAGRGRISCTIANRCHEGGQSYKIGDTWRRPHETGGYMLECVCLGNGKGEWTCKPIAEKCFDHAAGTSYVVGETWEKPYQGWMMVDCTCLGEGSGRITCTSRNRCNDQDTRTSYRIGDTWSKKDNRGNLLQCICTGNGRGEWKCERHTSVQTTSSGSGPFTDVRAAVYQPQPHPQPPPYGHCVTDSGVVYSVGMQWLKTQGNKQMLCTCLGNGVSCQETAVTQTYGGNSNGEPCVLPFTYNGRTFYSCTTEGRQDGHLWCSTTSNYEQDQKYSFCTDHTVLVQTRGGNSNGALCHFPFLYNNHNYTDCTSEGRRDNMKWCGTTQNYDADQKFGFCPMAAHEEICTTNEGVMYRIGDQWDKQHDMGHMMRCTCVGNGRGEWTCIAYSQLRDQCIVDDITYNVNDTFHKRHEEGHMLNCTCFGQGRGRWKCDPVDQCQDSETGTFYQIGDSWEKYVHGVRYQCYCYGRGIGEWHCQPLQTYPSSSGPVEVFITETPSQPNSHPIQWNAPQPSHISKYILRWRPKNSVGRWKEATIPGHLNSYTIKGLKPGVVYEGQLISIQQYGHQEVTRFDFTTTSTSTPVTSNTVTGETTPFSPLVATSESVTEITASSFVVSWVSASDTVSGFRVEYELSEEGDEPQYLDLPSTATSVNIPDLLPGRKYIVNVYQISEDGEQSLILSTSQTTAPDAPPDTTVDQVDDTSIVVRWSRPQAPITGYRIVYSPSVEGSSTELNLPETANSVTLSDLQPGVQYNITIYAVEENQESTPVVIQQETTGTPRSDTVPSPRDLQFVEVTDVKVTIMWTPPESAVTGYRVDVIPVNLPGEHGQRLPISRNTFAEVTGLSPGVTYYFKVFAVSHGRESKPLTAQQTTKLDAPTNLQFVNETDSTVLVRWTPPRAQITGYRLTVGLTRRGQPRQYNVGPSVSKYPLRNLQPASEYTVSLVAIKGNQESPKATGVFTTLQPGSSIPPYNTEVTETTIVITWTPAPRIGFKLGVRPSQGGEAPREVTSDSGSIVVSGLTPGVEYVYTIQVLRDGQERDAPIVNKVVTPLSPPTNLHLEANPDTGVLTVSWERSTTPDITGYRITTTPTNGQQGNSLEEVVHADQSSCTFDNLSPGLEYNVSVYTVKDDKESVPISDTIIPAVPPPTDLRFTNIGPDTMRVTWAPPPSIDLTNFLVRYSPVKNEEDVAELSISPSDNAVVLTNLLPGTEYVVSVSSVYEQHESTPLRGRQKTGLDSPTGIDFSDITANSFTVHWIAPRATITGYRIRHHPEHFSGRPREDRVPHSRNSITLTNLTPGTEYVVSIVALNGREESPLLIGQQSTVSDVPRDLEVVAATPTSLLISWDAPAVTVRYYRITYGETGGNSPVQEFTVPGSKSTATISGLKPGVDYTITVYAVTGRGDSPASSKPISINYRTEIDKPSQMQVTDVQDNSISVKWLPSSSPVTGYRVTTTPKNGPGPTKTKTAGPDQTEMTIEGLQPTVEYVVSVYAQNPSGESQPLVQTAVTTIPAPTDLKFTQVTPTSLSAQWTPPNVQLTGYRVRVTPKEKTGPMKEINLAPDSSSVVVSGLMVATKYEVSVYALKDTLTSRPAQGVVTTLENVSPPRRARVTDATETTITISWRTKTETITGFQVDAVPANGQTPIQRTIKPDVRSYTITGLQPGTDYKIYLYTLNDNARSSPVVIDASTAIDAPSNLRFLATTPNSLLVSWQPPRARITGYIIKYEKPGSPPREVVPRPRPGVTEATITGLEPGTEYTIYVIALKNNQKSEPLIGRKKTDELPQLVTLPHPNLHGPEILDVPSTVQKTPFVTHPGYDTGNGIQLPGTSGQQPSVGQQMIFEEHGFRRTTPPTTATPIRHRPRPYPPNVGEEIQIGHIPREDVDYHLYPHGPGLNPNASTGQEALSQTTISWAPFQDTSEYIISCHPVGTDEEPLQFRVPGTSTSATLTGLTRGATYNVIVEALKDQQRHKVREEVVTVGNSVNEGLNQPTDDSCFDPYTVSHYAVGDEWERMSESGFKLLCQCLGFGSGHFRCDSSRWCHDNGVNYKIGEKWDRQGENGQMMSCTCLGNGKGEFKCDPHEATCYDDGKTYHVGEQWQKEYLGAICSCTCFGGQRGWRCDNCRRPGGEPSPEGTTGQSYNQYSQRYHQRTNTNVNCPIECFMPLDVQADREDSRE

Row | Protein | cleavage of the fusion protein (SDS-PAGE) [1] | Km [2] [µM] | kcat [2] [s⁻¹] | kcat/Km (mM^-1 · min^-1) [2] | nonspecific proteolytic activity (SDS-PAGE) [3] | Km [4] [µM] | kcat [4] [s⁻¹] | kcat/Km (mM^-1 · min^-1) [4] | proteolytic activity (SDS-PAGE) [5] | Km [6] [µM] | kcat [6] [s⁻¹] | kcat/Km (mM^-1 · min^-1) [6] | cleavage of the fusion protein (SDS-PAGE/Western blot) [7] | Km [8] [µM] | kcat [8] [s⁻¹] | kcat/Km (mM^-1 · min^-1) [8] | proteolytic activity (gelatin zymography) [9] | proteolytic activity (SDS-PAGE) [10] | cleavage of the fusion protein (SDS-PAGE) [11] | nonspecific proteolytic activity (SDS-PAGE) [12]
1 | Bovine EP serine protease (New England Biolabs) (protein) IVGGSDSREGAWPWVVALYFDDQQVCGASLVSRDWLVSAAHCVYGRNMEPSKWKAVLGLHMASNLTSPQIETRLIDQIVINPHYNKRRKNNDIAMMHLEMKVNYTDYIQPICLPEENQVFPPGRICSIAGWGALIYQGSTADVLQEADVPLLSNEKCQQQMPEYNITENMVCAGYEAGGVDSCQGDSGGPLMCQENNRWLLAGVTSFGYQCALPNRPGVYARVPRFTEWIQSFLH | the fusion protein was extensively digested by mammalian EP serine proteases | 400 | 9.5 | 1400 | both of which were degraded noticeably by mammalian EP proteases | 400 | 10 | 1500 | these substrates were detectably hydrolyzed by the mammalian proteases | 500 | 25 | 3000 | but not with mammalian ones, showed two polypeptides (53- and 55-kDa) | 2900 | 21.7 | 450 | these substrates were detectably hydrolyzed by the mammalian proteases | these substrates were detectably hydrolyzed by the mammalian proteases | the mammalian enzymes not only produced the two expected polypeptides but also further degraded the products | both of which were degraded noticeably by mammalian EP proteases
2 | Bovine EP serine protease (Novagen) (protein) IVGGSDSREGAWPWVVALYFDDQQVCGASLVSRDWLVSAAHCVYGRNMEPSKWKAVLGLHMASNLTSPQIETRLIDQIVINPHYNKRRKNNDIAMMHLEMKVNYTDYIQPICLPEENQVFPPGRICSIAGWGALIYQGSTADVLQEADVPLLSNEKCQQQMPEYNITENMVCAGYEAGGVDSCQGDSGGPLMCQENNRWLLAGVTSFGYQCALPNRPGVYARVPRFTEWIQSFLH | the fusion protein was extensively digested by mammalian EP serine proteases | 500 | 12.3 | 1500 | both of which were degraded noticeably by mammalian EP proteases | 500 | 12 | 1400 | these substrates were detectably hydrolyzed by the mammalian proteases | 800 | 12.8 | 960 | but not with mammalian ones, showed two polypeptides (53- and 55-kDa) | 4000 | 13.2 | 200 | these substrates were detectably hydrolyzed by the mammalian proteases | these substrates were detectably hydrolyzed by the mammalian proteases | the mammalian enzymes not only produced the two expected polypeptides but also further degraded the products | both of which were degraded noticeably by mammalian EP proteases
